Measurements reported in the supplement of paper PMC9170038.

System: MS2 coat protein
Test: apparent KD of MS2 coat protein; designed switch direction (-1 OFF switch, 1 ON switch): -1; higher = weaker reporter binding
How it was run: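 Designed RNA switches with common flanks were made on Illumina chips by stalled E. coli RNA polymerase. Titration with SNAP-549-labelled MS2 coat protein doubled from 0.7 or 1.5 nM up to 3 µM. Apparent KD is each design's median over clusters after curve-fitting normalised fluorescence.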

[1] = input ligand: microRNA oligo, concentration not stated
[2] = Eterna round: R95, input ligand: microRNA oligo, concentration not stated
[3] = Eterna round: R95, input ligand: FMN 200 uM
[4] = Eterna round: R95, input ligand: none

| Sequence | apparent KD of MS2 coat protein (input ligand: FMN 200 uM) [nM] | apparent KD of MS2 coat protein [1] [nM] | apparent KD of MS2 coat protein (input ligand: none) [nM] | apparent KD of MS2 coat protein [2] [nM] | apparent KD of MS2 coat protein [3] [nM] | apparent KD of MS2 coat protein [4] [nM] |
| --- | --- | --- | --- | --- | --- | --- |
| CCGUUCCGUGUAGGAUAUUGGCCUUCCUCGGGCCGAGAAGGACAUGAGGAUCACCCAUGUAUGCUAUUAUCGCGCGUGGCGCAC [Design 97] (Eterna round: R96, puzzle: Exclusion NG 1) | 158 | 22.6 | 39.1 | – | – | – |
| GUUUAAUUAGGAUAUGCAAGCGGUGUUAGAAAAGUAUCCAAACAUGAGGAUCACCCAUGUAGAAGGAGUUGUUG [Eternabot (L2) Solution 59] (Eterna round: R97, puzzle: Exclusion 2) | 28.5 | – | 30.2 | – | – | – |
| AGCUUUUUGCUCGUCUUAUACAUGAGGAUCACCCAUGUAUUGGACCACAUCGAUAGAUGUGGACCAAGAAGCGUGGU [Omdei Mir OFFv1 C4] (Eterna round: R97, puzzle: Sensor, turn-off variant 1) | 38.6 | – | 39.7 | – | – | – |
| GGAAUGUAAGGAUAUGCGAAAAGAAGCCGAAGGGAGUCGAAGCAGAAGGUACAUGAGGAUCACCCAUGUAAGGG [AK-MS2ROC-r4-exclusion4-12.1] (Eterna round: R97, puzzle: Exclusion 4) | 159 | – | 700 | – | – | – |
| CCAAGCUUAUUCAUUAACCACAUGAGGAUCACCCAUGUCUAGGCAAUUAUGACUGGCCCAUCUGGUGCUCGUCUUAU [Sensor-V1 #31] (Eterna round: R97, puzzle: Sensor, turn-off variant 1) | 20.9 | – | 20.8 | – | – | – |
| CAACGAAGUCGAGGAUAUGCCCACUCCGCAGCGGCAGAAGGCGACAUGAGGAUCACCCAUGUAACGGCUAACGGGAUGGGAAGG [Eternabot solution 7] (Eterna round: R96, puzzle: Exclusion NG 1) | 162 | 17.7 | 25.9 | – | – | – |
| CCUCCCGCCGUCAGGAUAUGCCGUACCGCUGCGCUCCAGAAGGCACUUGAGGAUCACCCAAGUACCCGUGAGGC [salish99_bmod_ex4_r4_009] (Eterna round: R97, puzzle: Brourd's mod of Exclusion 4) | 16 | – | 16.1 | – | – | – |
| ACAAGCUCUGUUGGGUGGUACAUGAGGAUCACCCAUGUUUUGCUCGUCUUGUGGGCCCGGGCCCGCGGCCCGGGCCC [-41.7, -69.7, A 12%] (Eterna round: R97, puzzle: Sensor, turn-off variant 1) | 513 | – | 807 | – | – | – |
| ACAUGACAUGAGGAUCACCCAUGUUAGGAUAUCCCUCGUCCUGACUGAACGUCGGAAUGGAGAAGGAGCAUGGC [Eternabot (L2) Solution 88] (Eterna round: R97, puzzle: Exclusion 1) | 47.1 | – | 45.8 | – | – | – |
| AUAUAUAGUGUGAGGAUAUGCUGGUCCUUGGAUCAGCAGAAGGCACAUGAGGAUCACCCAUGUAGUUAAAUAUA [Mat - Exclusion 4 - JL Mod - D19] (puzzle: Brourd's mod of Exclusion 4) | – | – | – | 32.1 | – | – |
| CACUGGACAGGAUAUGUUCUUGAGCACUUGAGGAUCACCCAAGUCAUCAAGAACUCAGGCACAGAAGGGUUUAUGC [salish99_ex5_r4_012] (Eterna round: R97, puzzle: Exclusion 5) | 24.7 | – | 14 | – | – | – |
| GUUAGACAUGAGGAUCACCCAUGUGAGGAUAUGAUGCGAAUAAUGAAUGAAGAAAGCAUCAGAAGGCACAUAUG [Mat - Mod of Hyphema D29] (puzzle: Exclusion 1) | – | – | – | 296 | 375 | 221 |
| AGGUCACAUGAGGAUCACCCAUGUCAGGAUAUCUACAUUGAAGCCUCGGCUUCAAUGUAGAGAAGGGACAAUUA [E1/6-B2] (Eterna round: R97, puzzle: Exclusion 1) | 209 | – | 72.2 | – | – | – |
| GCGGGAUAGCAAGGAUAUCCCGAGUCGCAAGGAAACAUCCACAUGAGGAUCACCCAUGUGGCUCUGGAGAAGGUGCGACGCAAA [Onveceanti] (Eterna round: R96, puzzle: Exclusion NG 2) | 10.3 | 9.8 | 13.4 | – | – | – |
| CUUCUCAGAGUCAGGAUAUAGUCGAAAGGGCUAGACUAGAAGGGACAUGAGGAUCACCCAUGUAAAAUAUCAAA [Razalequ] (puzzle: Brourd's mod of Exclusion 4) | – | – | – | 20.4 | – | – |
| CUCGUGUGAGGAUAUCUAUUCCACGGACGGGAGUCUUGAUGAGAGAAGGCACAUGAGGAUCACCCAUGUAAUAA [Laveinxe] (puzzle: Exclusion 4) | – | – | – | 105 | – | – |
| CCUCAACAGUAGGAUAUCAUCAAACUAUUGUGAUGAGAAGGACUGACAUGAGGAUCACCCAUGUUAACGUGAUG [Exclusion 6 - 6:c] (puzzle: Exclusion 6) | – | – | – | 21 | 70.8 | 20.4 |

| Sequence | apparent KD of MS2 coat protein (input ligand: FMN 200 uM) [nM] | apparent KD of MS2 coat protein [1] [nM] | apparent KD of MS2 coat protein (input ligand: none) [nM] | apparent KD of MS2 coat protein [2] [nM] | apparent KD of MS2 coat protein [3] [nM] | apparent KD of MS2 coat protein [4] [nM] |
| --- | --- | --- | --- | --- | --- | --- |
| AAUAUAAGCAAGAUCCUAAACAUGAGGAUCACCCAUGUGCUCGUCUUAUAAAGUACUAUCACGAAAGUGAUAGUACA [Sensor 3, v1 - 65] (puzzle: Sensor v3, turn-off variant 1) | – | – | – | 398 | 111 | 127 |
| UGCUGACGAGGAUAUACAUGAGGAUCACCCAUGUUGGUCAAGCGACGAUAGUCGCAAUGUAGAAGGCGUCAGCA [E3/8-A2] (Eterna round: R97, puzzle: Exclusion 3) | 239 | – | 405 | – | – | – |
| AAAAAGUUAGGAUAUACAUGAGGAUCACCCAUGUACAUAUAUGGAGAAAAAAACAGUAGUAGAAGGGACAAAAA [EX2 Malc#12] (Eterna round: R96, puzzle: Exclusion 3) | 28.8 | 23.3 | 29.2 | – | – | – |
| GGGUGCGAGCUAAGAUCCUACAUGAGGAUCACCCAUGUGGUCCGGUGACGUGAGUCACCGGACUUAGCUCGUCUUGU [salish99_S_TOV1_R5_005] (Eterna round: R97, puzzle: Sensor, turn-off variant 1) | 26.3 | – | 29.2 | – | – | – |
| UAUCUACAUGAGGAUCACCCAUGUGAGGAUAUCAAAACCAGAGCGGAUCUCUGGCCCAUGAGAAGGUACAUGGU [ElNandoxlusion 5 - Jieux - Exclusion 1] (Eterna round: R97, puzzle: Exclusion 1) | 59.2 | – | 20 | – | – | – |
| AAUAACAGAGGAUAUACUAUUUUAUGUGUUUAUUGUUUUGAACAUGAGGAUCACCCAUGUAGAAGGCUGAAUGA [JMF 67] (puzzle: Exclusion 2) | – | – | – | 25.8 | – | – |
| UCCUUACAUGAGGAUCACCCAUGUCAGGAUAUCUCGGGCGGCUGAGGACCAGCCGCCCAGAGAAGGGACGAGGA [Dixeinis] (puzzle: Exclusion 1) | – | – | – | 23.1 | 38.6 | 31.3 |
| AGAGUACUGCGAGGAUAUACAUGAGGAUCACCCAUGUAAUAGUGUGAGGCUUUGCCUCACACAAUGUAGAAGGCGCAGUACUCA [Mat - Exclusion NG 2 - Mod of JL - D6] (Eterna round: R96, puzzle: Exclusion NG 2) | 15.7 | 9.81 | 17.8 | – | – | – |
| CUUGUUUAUGUGAGGAUAUACUGUUAGUAAUGUUUGUAGAAGGUACAUGAGGAUCACCCAUGUUUAUUUCCUUU [JR_BME4_Sub045] (puzzle: Brourd's mod of Exclusion 4) | – | – | – | 13.8 | – | – |
| UUUUACAAGCUAAGAUCCUACAUGAGGAUCACCCAUGUGGUCCGGUGACGUGAGUCACCGGACUUAGCUCGUCUUGU [JL TOV1 3.70] (Eterna round: R97, puzzle: Sensor, turn-off variant 1) | 80.3 | – | 88.2 | – | – | – |
| AGGGCACAUGAGGAUCACCCAUGUGAGGAUAUCCCGGUACUAUCGAUGUAGUAAUCGUGGAGAAGGCACACGAC [EX1 C.21] (Eterna round: R97, puzzle: Exclusion 1) | 90.3 | – | 62.6 | – | – | – |
| CCACGACAUGAGGAUCACCCAUGUGAGGAUAUGGCCUGAAAAGCGUGAGCUGAAUCAAUCAGAAGGCGCGUGGG [salish99_ex1_r4_059_4A's] (Eterna round: R97, puzzle: Exclusion 1) | 109 | – | 42 | – | – | – |
| GAUGAGGUAGGAUAUACGAGAAGAUAGGGUAGAGAGAGAACACAUGAGGAUCACCCAUGUAGAAGGACCAGUAG [Mat - Exclusion 2 - Mod of my Tesla design - D74] (puzzle: Exclusion 2) | – | – | – | 21.1 | 48.9 | 21.4 |
| ACAUGAGGAUCACCCAUGUUUUUCGGGUACUCUUGAUACAGCAAGGAUAUGCAUUAUUUAUGUACGCAGAAGGUGCAUUACGUC [JR_ExcNG3_Sub064] (Eterna round: R96, puzzle: Exclusion NG 3) | 104 | 67 | 71.9 | – | – | – |
| UAUAUAUAGUAAGGAUAUGUAUUUAUUUCAUAAACAGAAGGUACUGACAUGAGGAUCACCCAUGUUUUAGUGUGGGCAUGUAGA [JMF's solution 21] (Eterna round: R96, puzzle: Exclusion NG 1) | – | 62.1 | – | – | – | – |
| AUCAUGGACGCAGGAUAUACAUGAGGAUCACCCAUGUAGUAUGAUCAGUGAUGGUCGUCGAUAGUGUAGAAGGGCGGCUAGUAG [random] (Eterna round: R96, puzzle: Exclusion NG 2) | 34.4 | 24.2 | 32.8 | – | – | – |
| AGCCCUGCAGGAUAUGCCCGGGAUAACAUGAGGAUCACCCAUGUGACUGAUUGUUAUCCUGCAGAAGGGCAUGGGA [JL-EX5-4.13 ViennaUCT mod] (Eterna round: R97, puzzle: Exclusion 5) | 547 | – | 1000 | – | – | – |
